Fewer inactive variants are shown than the library holds.
Legend:
biotinyl-Leu-oxazolone = experiment: self-aminoacylation, catalytic enhancement (BLO) (fold over background); higher = more active; k-Seq, kA / k0A0; sequences stand for … in GGGAAUGGAUCCACAUCUACGAAUUC…UUCACUGCAGACUUGACGAAGCUG
Procedure, shortened: (§1)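 Catalytic enhancement equals the median kA over the uncatalyzed rate, the latter read from the low-activity peak of a bimodal Gaussian fit. Values of kA came from fitting each sequence's fraction reacted to a pseudo-first-order model, with 1000 bootstraps. Reacted RNA was captured with streptavidin and quantified by triplicate qPCR and Illumina sequencing after 90 minutes at room temperature with 2–1250 μM biotinyl-aminoacyl-oxazolone and 0.43 μM mutagenized RNA pools bearing a 21-nt variable region.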

biotinyl-Val-oxazolone = experiment: self-aminoacylation, catalytic enhancement (BVO) (fold over background); higher = more active; k-Seq, kA / k0A0; sequences stand for … in GGGAAUGGAUCCACAUCUACGAAUUC…UUCACUGCAGACUUGACGAAGCUG
Procedure, shortened: as §1

biotinyl-Met-oxazolone = experiment: self-aminoacylation, catalytic enhancement (BMO) (fold over background); higher = more active; k-Seq, kA / k0A0; sequences stand for … in GGGAAUGGAUCCACAUCUACGAAUUC…UUCACUGCAGACUUGACGAAGCUG
Procedure, shortened: as §1

biotinyl-Trp-oxazolone = experiment: self-aminoacylation, catalytic enhancement (BWO) (fold over background); higher = more active; k-Seq, kA / k0A0; sequences stand for … in GGGAAUGGAUCCACAUCUACGAAUUC…UUCACUGCAGACUUGACGAAGCUG
Procedure, shortened: as §1

biotinyl-Ile-oxazolone = experiment: self-aminoacylation, catalytic enhancement (BIO) (fold over background); higher = more active; k-Seq, kA / k0A0; sequences stand for … in GGGAAUGGAUCCACAUCUACGAAUUC…UUCACUGCAGACUUGACGAAGCUG
Procedure, shortened: as §1

biotinyl-Phe-oxazolone = experiment: self-aminoacylation, catalytic enhancement (BFO) (fold over background); higher = more active; k-Seq, kA / k0A0; sequences stand for … in GGGAAUGGAUCCACAUCUACGAAUUC…UUCACUGCAGACUUGACGAAGCUG
Procedure, shortened: as §1

Row | Sequence | self-aminoacylation (biotinyl-Leu-oxazolone) | self-aminoacylation (biotinyl-Val-oxazolone) | self-aminoacylation (biotinyl-Met-oxazolone) | self-aminoacylation (biotinyl-Trp-oxazolone) | self-aminoacylation (biotinyl-Ile-oxazolone) | self-aminoacylation (biotinyl-Phe-oxazolone)
1 | GUUGCCCUGGUCAUCGAGUGA [Fam2.1 aminoacylation ribozyme variant] | 57.5 | 23.4 | 54.2 | 58.8 | 19.1 | 382
2 | CCACCCUUCAACCAAUCGGUC [Fam1B.1 aminoacylation ribozyme variant] | 1.44 | 1.47 | 1.35 | 26.2 | 1.19 | 46
3 | CUUACCCUGGUCAUCGAUUGA [Fam2.1 aminoacylation ribozyme variant] | 0.839 | 0.929 | 0.863 | 1.34 | 0.751 | 0.863
4 | AUUAGGCUGGUCAUCGAGUGA [Fam2.1 aminoacylation ribozyme variant] | 2.85 | 2.48 | 3.01 | 4.23 | 2.53 | 8.97
5 | AUCCACCUAGGUCUUCGGGUG [Fam2.2 aminoacylation ribozyme variant] | 6.56 | 6.01 | 5.09 | 6.45 | 4.4 | 37.1
6 | AUUCACCUGGGCCAUCGGGUG [Fam2.2 aminoacylation ribozyme variant] | 6.53 | 5.03 | 6.2 | 4.74 | 4.03 | 35.7
7 | UUUACCCAGGUCAUCGAGUGA [Fam2.1 aminoacylation ribozyme variant] | 5.06 | 3.55 | 5.36 | 6 | 3.49 | 21.9
8 | ACUACCCUGGUCAGCGAGUGA [Fam2.1 aminoacylation ribozyme variant] | 6.39 | 4.6 | 6.39 | 6.58 | 4.51 | 38.3
9 | CCACAAGUCAAGCAAUCGGUC [Fam1B.1 aminoacylation ribozyme variant] | 1.49 | 1.54 | 1.67 | 1.32 | 1.64 | 1.15
10 | ACUCACCUAGGUCCUCGGGUG [Fam2.2 aminoacylation ribozyme variant] | 5.78 | 4.46 | 5.36 | 8.03 | 5.2 | 37.1
11 | AUUCACCGAGGGCAUCGGGUG [Fam2.2 aminoacylation ribozyme variant] | 8.06 | 5.15 | 5.18 | 7.83 | 4.62 | 30.9
12 | AACUUUGAUAAUAGUCGCAAG [Fam3.1 aminoacylation ribozyme variant] | 1.91 | 1.42 | 1.66 | 1.55 | 1.71 | 2.61
13 | CCAGACUCCAAGCAAUCGGUC [Fam1B.1 aminoacylation ribozyme variant] | 1.23 | 1.23 | 1.17 | 1.48 | 1.22 | 2.16
14 | CAACUUCAAACAAUCGGCCUG [Fam1A.1 aminoacylation ribozyme variant] | 6.75 | 2.92 | 4.11 | 107 | 3.08 | 283
15 | CCACACUUAAAGCCAUCGGUC [Fam1B.1 aminoacylation ribozyme variant] | 0.913 | 1.11 | 0.801 | 1.06 | 0.992 | 0.617
16 | CUGCUUCCAACAAUCGGUCUG [Fam1A.1 aminoacylation ribozyme variant] | 0.73 | 0.691 | 0.737 | 1.02 | 0.634 | 1.03
17 | CUACUUCAAACAAUCGGUCAU [Fam1A.1 aminoacylation ribozyme variant] | 0.892 | 1.01 | 0.666 | 1.88 | 0.892 | 4.39
18 | AUUACCCUCAUCAUCGAGUGA [Fam2.1 aminoacylation ribozyme variant] | 10.7 | 5.02 | 10.5 | 11.9 | 4.69 | 74.1
19 | AACUUUGCUAAUAGUCGGAAG [Fam3.1 aminoacylation ribozyme variant] | 1.15 | 1.4 | 1.38 | 1.49 | 1.43 | 3.03
20 | AUUACCCUGGUCAUCGACUGC [Fam2.1 aminoacylation ribozyme variant] | 0.839 | 0.722 | 0.555 | 0.371 | 0.701 | 0.441
21 | AACUUUGCUACUAGUCGCAAG [Fam3.1 aminoacylation ribozyme variant] | 1.91 | 2.24 | 2.34 | 2.43 | 2.14 | 3.3
22 | AGGUUUGCUAAUAGUCGUAAG [Fam3.1 aminoacylation ribozyme variant] | 1.1 | 1.08 | 1.23 | 7.24 | 1.22 | 29.2
23 | AUUAUCCUGGUCAUUGAGUGA [Fam2.1 aminoacylation ribozyme variant] | 11.7 | 5.05 | 11.7 | 13.9 | 5.33 | 67.5
24 | CUCCUUCAAACAAUCGGUCGG [Fam1A.1 aminoacylation ribozyme variant] | 2.14 | 1.33 | 1.96 | 24.2 | 1.32 | 62.4
25 | AUUCACUUAGGUGAUCGGGUG [Fam2.2 aminoacylation ribozyme variant] | 3.43 | 2.5 | 2.59 | 3.03 | 2.46 | 13.3
26 | CCAUACUUCAAGCAAUCGGUC [Fam1B.1 aminoacylation ribozyme variant] | 1.14 | 1.11 | 0.921 | 10.1 | 1.07 | 22.5
